# Results from patent publication US20240122847A1, “ORAL POLYPEPTIDE FORMULATIONS” (Bhami's Research Laboratory, Pvt. Ltd., priority 2022, published 2024).
# Read-outs that look alike come from different tables or passages of the source.
# Experiments:
# [1] = minipig, in vivo
# Protocol: Pharmacokinetic analysis was conducted in Female Minipigs weighing 12±1 kg for 2 days. Pigs in the treatment group were fasted overnight prior to the test sample administration. All the test animals in the treatment groups were administered with respective test formulation to the pre-designated animals. The animal was restrained and its head was held vertically, the jaws were pulled away, the tongue was gently lifted with a forceps followed by placement of a polypeptide formulation as described herein buccally/sublingually. After placing a polypeptide formulation as described herein, the snout was held together for about 1-2 mins to prevent the chewing of the polypeptide formulation. The time of dosage of each animal was noted. Blood samples were collected at aforementioned time points 0 min, 15 min, 30 min, 1 hour, 2 hours, 4 hours, 8 hours, 12 hours, 24 hours, and 48 hours into an EDTA-blood collection tubes for the separation of plasma to determine insulin levels by ELISA. Plasma samples collected at different time points were analyzed by ELISA kit according to ABBEXA protocol. This kit is based on sandwich enzyme-linked immuno-sorbent assay technology. An antibody, anti-insulin was pre-coated onto a 96-well plate. Standards, test samples, and biotin-conjugated reagent were added to the wells and incubated. The HRP-conjugated reagent was then added, and the whole plate was incubated. Unbound conjugates were removed using wash buffer at each stage. TMB substrate was used to quantify the HRP enzymatic reaction. After TMB substrate was added, only wells that contain sufficient INS will produce a blue colored product, which then changes to yellow after adding the acidic stop solution. The intensity of the yellow color is proportional to the INS amount bound on the plate. The Optical Density (OD) was measured spectrophotometrically at 450 nm in a microplate reader, from which the concentration of INS can be calculated.
# Insulin was analyzed in plasma using a specific enzyme linked immunosorbent assay (ELISA). Pharmacokinetic endpoints were determined using noncompartmental methods using PK Solutions software. AUC was approximated using the trapezoidal rule on the observed concentrations. C max for each Insulin dose was derived as the maximum of all valid concentrations, and t max was then determined as the corresponding time point to C max. The terminal elimination rate constant (λz) was estimated by log-linear regression on the terminal part of the concentration-time curve, and t ½ was then calculated as t ½=ln 2/λz.
# [2] = rat, in vivo
# Protocol: Pharmacokinetic analysis was conducted in Female rats weighing 220-250 grams for 2 days. Rats in the oral treatment group was fasted overnight prior to the test sample administration. All the test animals in the treatment groups were administered with respective test formulation to the pre-designated animals. The animal was restrained and its head was held vertically, the jaws were pulled away, the tongue was gently lifted with a forceps followed by placement of a polypeptide formulation as described herein buccally/sublingually. After placing a polypeptide formulation as described herein, the snout was held together for about 1-2 mins to prevent the chewing of the polypeptide formulation. The time of dosage of each animal was noted. Blood samples were collected at aforementioned time points 0 min, 15 min, 30 min, 1 hour, 2 hours, 4 hours, 8 hours, 12 hours, 24 hours, and 48 hours into an EDTA-blood collection tubes for the separation of plasma to determine insulin levels by ELISA. Plasma samples collected at different time points were analyzed by ELISA kit according to ABBEXA protocol. This kit is based on sandwich enzyme-linked immuno-sorbent assay technology. An antibody, anti-insulin was pre-coated onto a 96-well plate. Standards, test samples, and biotin-conjugated reagent were added to the wells and incubated. The HRP-conjugated reagent was then added, and the whole plate was incubated. Unbound conjugates were removed using wash buffer at each stage. TMB substrate was used to quantify the HRP enzymatic reaction. After TMB substrate was added, only wells that contain sufficient INS will produce a blue colored product, which then changes to yellow after adding the acidic stop solution. The intensity of the yellow color is proportional to the INS amount bound on the plate. The Optical Density (OD) was measured spectrophotometrically at 450 nm in a microplate reader, from which the concentration of INS can be calculated.
# Insulin was analyzed in plasma using a specific enzyme linked immunosorbent assay (ELISA). Pharmacokinetic endpoints were determined using noncompartmental methods using PK Solutions software. AUC was approximated using the trapezoidal rule on the observed concentrations. C max for each Insulin dose was derived as the maximum of all valid concentrations, and t max was then determined as the corresponding time point to C max. The terminal elimination rate constant (λz) was estimated by log-linear regression on the terminal part of the concentration-time curve, and t ½ was then calculated as t½=ln 2/λz.
# [3] = in vivo
substance,measurement,setting,value
Human Insulin R: peptide/protein hormone structurally identical to human insulin synthesized through rDNA technology; SC marketed liquid or lyophilized microparticles in sugar truffle shell,AUC 0-inf/D_obs,[1]; 2.08 mg,7418.052 mU/L*h/(mg)
same,AUC 0-inf/D_pred,[1]; 2.08 mg,7439.299 mU/L*h/(mg)
same,AUC 0-inf_obs,[1]; 2.08 mg,2574.064 mU/L*h
same,AUC 0-inf_pred,[1]; 2.08 mg,2581.437 mU/L*h
same,AUC 0-t,[1]; 2.08 mg,2511.461 mU/L*h
same,AUC t-inf_obs,[1]; 2.08 mg,62.603 mU/L*h
same,AUC t-inf_pred,[1]; 2.08 mg,69.975 mU/L*h
same,Cl/F_obs,[1]; 2.08 mg,0.000 (mg)/(mU/L)/h
same,Cl/F_pred,[1]; 2.08 mg,0.000 (mg)/(mU/L)/h
same,Cmax,[1]; 2.08 mg,330.950 mU/L
same,MRT 0-inf_obs,[1]; 2.08 mg,11.492 h
same,MRT 0-inf_pred,[1]; 2.08 mg,11.639 h
same,MRT 0-t,[1]; 2.08 mg,10.214 h
same,Tmax,[1]; 2.08 mg,0.500 h
same,Vz/F_obs,[1]; 2.08 mg,0.002 (mg)/(mU/L)
same,Vz/F_pred,[1]; 2.08 mg,0.002 (mg)/(mU/L)
same,t½,[1]; 2.08 mg,10.234 h
same,AUC 0-inf/D_obs,"[1]; sc, 0.347 mg",3483.581 mU/L*h/(mg)
same,AUC 0-inf/D_pred,"[1]; sc, 0.347 mg",3434.617 mU/L*h/(mg)
same,AUC 0-inf_obs,"[1]; sc, 0.347 mg",1208.803 mU/L*h
same,AUC 0-inf_pred,"[1]; sc, 0.347 mg",1191.812 mU/L*h
same,AUC 0-t,"[1]; sc, 0.347 mg",1101.784 mU/L*h
same,AUC t-inf_obs,"[1]; sc, 0.347 mg",107.019 mU/L*h
same,AUC t-inf_pred,"[1]; sc, 0.347 mg",90.028 mU/L*h
same,Cl/F_obs,"[1]; sc, 0.347 mg",0.000 (mg)/(mU/L)/h
same,Cl/F_pred,"[1]; sc, 0.347 mg",0.000 (mg)/(mU/L)/h
same,Cmax,"[1]; sc, 0.347 mg",316.870 mU/L
same,MRT 0-inf_obs,"[1]; sc, 0.347 mg",13.028 h
same,MRT 0-inf_pred,"[1]; sc, 0.347 mg",12.134 h
same,MRT 0-t,"[1]; sc, 0.347 mg",6.938 h
same,Tmax,"[1]; sc, 0.347 mg",2.000 h
same,Vz/F_obs,"[1]; sc, 0.347 mg",0.008 (mg)/(mU/L)
same,Vz/F_pred,"[1]; sc, 0.347 mg",0.008 (mg)/(mU/L)
same,t½,"[1]; sc, 0.347 mg",19.218 h
same,AUC 0-inf/D_obs,[2]; 0.52 mg,4373.827 mU/L*h/(mg)
same,AUC 0-inf/D_pred,[2]; 0.52 mg,4364.913 mU/L*h/(mg)
same,AUC 0-inf_obs,[2]; 0.52 mg,2274.390 mU/L*h
same,AUC 0-inf_pred,[2]; 0.52 mg,2269.755 mU/L*h
same,AUC 0-t,[2]; 0.52 mg,2204.699 mU/L*h
same,AUC t-inf_obs,[2]; 0.52 mg,69.691 mU/L*h
same,AUC t-inf_pred,[2]; 0.52 mg,65.056 mU/L*h
same,Cl/F_obs,[2]; 0.52 mg,0.000 (mg)/(mU/L)/h
same,Cl/F_pred,[2]; 0.52 mg,0.000 (mg)/(mU/L)/h
same,Cmax,[2]; 0.52 mg,331.520 mU/L
same,MRT 0-inf_obs,[2]; 0.52 mg,11.202 h
same,MRT 0-inf_pred,[2]; 0.52 mg,11.097 h
same,MRT 0-t,[2]; 0.52 mg,9.580 h
same,Tmax,[2]; 0.52 mg,0.250 h
same,Vz/F_obs,[2]; 0.52 mg,0.003 (mg)/(mU/L)
same,Vz/F_pred,[2]; 0.52 mg,0.003 (mg)/(mU/L)
same,t½,[2]; 0.52 mg,10.064 h
same,AUC 0-inf/D_obs,"[2]; sc, 0.087 mg",6997.06 mU/L*h/(mg)
same,AUC 0-inf/D_pred,"[2]; sc, 0.087 mg",6935.40 mU/L*h/(mg)
same,AUC 0-inf_obs,"[2]; sc, 0.087 mg",2427.98 mU/L*h
same,AUC 0-inf_pred,"[2]; sc, 0.087 mg",2406.58 mU/L*h
same,AUC 0-t,"[2]; sc, 0.087 mg",2382.00 mU/L*h
same,AUC t-inf_obs,"[2]; sc, 0.087 mg",45.98 mU/L*h
same,AUC t-inf_pred,"[2]; sc, 0.087 mg",24.58 mU/L*h
same,Cl/F_obs,"[2]; sc, 0.087 mg",0.00 (mg)/(mU/L)/h
same,Cl/F_pred,"[2]; sc, 0.087 mg",0.00 (mg)/(mU/L)/h
same,Cmax,"[2]; sc, 0.087 mg",332.03 mU/L
same,MRT 0-inf_obs,"[2]; sc, 0.087 mg",8.70 h
same,MRT 0-inf_pred,"[2]; sc, 0.087 mg",8.26 h
same,MRT 0-t,"[2]; sc, 0.087 mg",7.74 h
same,Tmax,"[2]; sc, 0.087 mg",0.50 h
same,Vz/F_obs,"[2]; sc, 0.087 mg",0.00 (mg)/(mU/L)
same,Vz/F_pred,"[2]; sc, 0.087 mg",0.00 (mg)/(mU/L)
same,t½,"[2]; sc, 0.087 mg",7.21 h
same,bioavailability when compared to SC or IV administration,[3],greater than 7%
